Test results as given in patent publication US20080076708A1.

Target: Recombinant human Interleukin-18 (r-hIL-18) (human) (UniProt Q14116)
Assay: cell-based or functional assay

Recombinant human Interleukin-18 (r-hIL-18) (human), sequence (Q14116 37-193 limits assumed): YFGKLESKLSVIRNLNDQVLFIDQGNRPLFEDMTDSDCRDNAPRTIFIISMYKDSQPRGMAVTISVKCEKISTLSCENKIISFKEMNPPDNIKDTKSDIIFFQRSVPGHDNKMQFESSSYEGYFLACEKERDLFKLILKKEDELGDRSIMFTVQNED

r-hIL-18BP bulks ILNCT23 and ILNCT24 (from UniProt O95998 31-194)
Biological activity U/mL (KG-1 cells in vitro bioassay; bulk ILNCT23): 1.2e+06 U/mL
Biological activity U/mL (KG-1 cells in vitro bioassay; bulk ILNCT24): 1.01e+06 U/mL
Specific activity U/mg (KG-1 cells in vitro bioassay; bulk ILNCT23): 19800 U/mg
Specific activity U/mg (KG-1 cells in vitro bioassay; bulk ILNCT24): 17900 U/mg

truncated form of r-hIL-18BP (serum-free produced drug substance batches ILNCT19-22) (from UniProt O95998 46-194)
Biological activity U/mL (KG-1 cells in vitro bioassay; bulk ILNCT19): 949000 U/mL
Biological activity U/mL (KG-1 cells in vitro bioassay; bulk ILNCT20): 1.23e+06 U/mL
Biological activity U/mL (KG-1 cells in vitro bioassay; bulk ILNCT21): 1.28e+06 U/mL
Biological activity U/mL (KG-1 cells in vitro bioassay; bulk ILNCT22): 1.35e+06 U/mL
Specific activity U/mg (KG-1 cells in vitro bioassay; bulk ILNCT19): 15400 U/mg
Specific activity U/mg (KG-1 cells in vitro bioassay; bulk ILNCT20): 21400 U/mg
Specific activity U/mg (KG-1 cells in vitro bioassay; bulk ILNCT21): 20400 U/mg
Specific activity U/mg (KG-1 cells in vitro bioassay; bulk ILNCT22): 22500 U/mg
